Molecular target: T1, Acro SARS-CoV-2 (COVID-19) S1 protein (SARS-CoV-2, UniProt P0DTC2 16-685)
T1 construct: also called SARS-CoV-2 S1
Assay: SPR

Binder	Kd [nM]
variant 6-43 (Fc fusion) VHH: EVQLVESGGGLVQPGGSLRLSCAASGRTFSSYAMMGWFRQAPGKEREFVASVNWDASQINYADSVKGRFTISADNSKNTAYLQMNSLKPEDTAVYYCTTLGAVYFDSSGYHDYFDYWGQGTLVTVSS	17.9
variant 6-18 (Fc fusion) VHH: EVQLVESGGGLVQPGGSLRLSCAASGLTFRNYAMGWFRQAPGKEREFIAGMMWSGGTTTYADSVKGRFTISADNSKNTAYLQMNSLKPEDTAVYYCAREGYYYDSSGYLNYFDYWGQGTLVTVSS	30.1
variant 6-34 (Fc fusion) VHH: EVQLVESGGGLVQPGGSLRLSCAASGSAFRSNAMGWFRQAPGKEREFVAHISWSSKSTYYADSVKGRFTISADNSKNTAYLQMNSLKPEDTAVYYCATYCSSTSCFDYWGQGTLVTVSS	21.3
variant 6-24 (Fc fusion) VHH: EVQLVESGGGLVQPGGSLRLSCAASGFTLDYYAMGWFRQAPGKEREFVAAINWSGDNTHYADSVKGRFTISADNSKNTAYLQMNSLKPEDTAVYYCARAPFYCTTTKCQDNYYYMDVWGQGTLVTVSS	29.9
variant 6-28 (Fc fusion) VHH: EVQLVESGGGLVQPGGSLRLSCAASGDTYGSYWMGWFRQAPGKEREFVATITSDDRTNYADSVKGRFTISADNSKNTAYLQMNSLKPEDTAVYYCARVTSSLSGMDVWGQGTLVTVSS	54.1
variant 6-33 (Fc fusion) VHH: EVQLVESGGGLVQPGGSLRLSCAASGTFQRINHMGWFRQAPGKEREFVATINTGGQPNYADSVKGRFTISADNSKNTAYLQMNSLKPEDTAVYYCASLIAAQDYYFDYWGQGTLVTVSS	76.4
variant 6-12 (Fc fusion) VHH: EVQLVESGGGLVQPGGSLRLSCAASGSTYTTYSMGWFRQAPGKEREFVAAISGSENVTSYADSVKGRFTISADNSKNTAYLQMNSLKPEDTAVYYCARVDDYMDVWGQGTLVTVSS	50.2
variant 6-23 (Fc fusion) VHH: EVQLVESGGGLVQPGGSLRLSCAASGSIFSMNTMGWFRQAPGKEREFVALINRSGGGINYADSVKGRFTISADNSKNTAYLQMNSLKPEDTAVYYCVRLSSGYYDFDYWGQGTLVTVSS	59.3
variant 6-39 (Fc fusion) VHH: EVQLVESGGGLVQPGGSLRLSCAASGFTFSPSWMGWFRQAPGKEREFVAAISWSGGSTAYADSVKGRFTISADNSKNTAYLQMNSLKPEDTAVYYCHGLGEGDPYGDYEGYFDLWGQGTLVTVSS	11.3
variant 6-6 (Fc fusion) VHH: EVQLVESGGGLVQPGGSLRLSCAASGTTLDYYAMGWFRQAPGKERELVAAISWSGGSTAYADSVKGRFTISADNSKNTAYLQMNSLKPEDTAVYYCAREDYYDSSGYSWGQGTLVTVSS	6.4
variant 6-19 (Fc fusion) VHH: EVQLVESGGGLVQPGGSLRLSCAASGSILSIAVMGWFRQAPGKEREFVAAISPSAVTTYYADSVKGRFTISADNSKNTAYLQMNSLKPEDTAVYYCAIGYYDSSGYFDYWGQGTLVTVSS	71
variant 6-14 (Fc fusion) VHH: EVQLVESGGGLVQPGGSLRLSCAASGITFRFKAMGWFRQAPGKEREFVAAVSWDGRNTYYADSVKGRFTISADNSKNTAYLQMNSLKPEDTAVYYCASDYYYMDVWGQGTLVTVSS	135
variant 6-45 (Fc fusion) VHH: EVQLVESGGGLVQPGGSLRLSCAASGNMFSINAMGWFRQAPGKEREFVTLISWSSGRTSYADSVKGRFTISADNSKNTAYLQMNSLKPEDTAVYYCASLGYCSGGSCFDYWGQGTLVTVSS	17.5
variant 6-31 (Fc fusion) VHH: EVQLVESGGGLVQPGGSLRLSCAASGDTFSANRMGWFRQAPGKEREFVASITWSSANTYYADSVKGRFTISADNSKNTAYLQMNSLKPEDTAVYYCATFNWNDEGFDFWGQGTLVTVSS	39.6
variant 6-40 (Fc fusion) VHH: EVQLVESGGGLVQPGGSLRLSCAASGFTFSDYWMGWFRQAPGKERELVARVWWNGGSAYYADSVKGRFTISADNSKNTAYLQMNSLKPEDTAVYYCAREVLRQQVVLDYWGQGTLVTVSS	44.3
variant 6-17 (Fc fusion) VHH: EVQLVESGGGLVQPGGSLRLSCAASGNTGSTGYMGWFRQAPGKEREMVAGVINDGSTVYADSVKGRFTISADNSKNTAYLQMNSLKPEDTAVYYCARLATSHQDGTGYLFDYWGQGTLVTVSS	65.2
variant 6-47 (Fc fusion) VHH: EVQLVESGGGLVQPGGSLRLSCAASGRTFSMHAMGWFRQAPGKERELVASITYGGNINYADSVKGRFTISADNSKNTAYLQMNSLKPEDTAVYYCAKEGYYDSTGYRTYFQQWGQGTLVTVSS	43.9

Binder	Kd [nM]
variant 6-37 (Fc fusion) VHH: EVQLVESGGGLVQPGGSLRLSCAASGHTFSTSWMGWFRQAPGKEREFVATINSLGGTNYADSVKGRFTISADNSKNTAYLQMNSLKPEDTAVYYCARVSSGDYGMDVWGQGTLVTVSS	22.5
variant 6-5 (Fc fusion) VHH: EVQLVESGGGLVQPGGSLRLSCAASGRTFTMGWFRQAPGKEREFVASTNSAGSTNYADSVNGRFTISADNSKNTAYLQMNSLKPEDTAVYYCTTVDQYFDYWGQGTLVTVSS	24.9
variant 6-36 (Fc fusion) VHH: EVQLVESGGGLVQPGGSLRLSCAASGFDFSVSWMGWFRQAPGKEREFVTAITWSGDSTNYADSVKGRFTISADNSKNTAYLQMNSLKPEDTAVYYCASLLHTGPSGGNYFDYWGQGTLVTVSS	32.1
variant 6-46 (Fc fusion) VHH: EVQLVESGGGLVQPGGSLRLSCAASGLTFSAMGWFRQAPGKEREFVALIRRDGSTIYADSVKGRFTISADNSKNTAYLQMNSLKPEDTAVYYCAALGILFGYDAFDIWGQGTLVTVSS	18.1
variant 6-49 (Fc fusion) VHH: EVQLVESGGGLVQPGGSLRLSCAASGSTVLINAMGWFRQAPGKEREFVAAISWSPGRTDYADSVKGRFTISADNSKNTAYLQMNSLKPEDTAVYYCARDCSGGSCYSGDYWGQGTLVTVSS	58.2
variant 6-25 (Fc fusion) VHH: EVQLVESGGGLVQPGGSLRLSCAASGLTFGTYTMGWFRQAPGKEREFVAAISRFGSTYYADSVKGRFTISADNSKNTAYLQMNSLKPEDTAVYYCARGGDYDFWSVDYMDVWGQGTLVTVSS	248
variant 6-42 (Fc fusion) VHH: EVQLVESGGGLVQPGGSLRLSCAASGDTYGSYWMGWFRQAPGKEREFVAVITSGGSTNYADSVKGRFTISADNSKNTAYLQMNSLKPEDTAVYYCTHVQNSYYYAMDVWGQGTLVTVSS	10.1
variant 6-32 (Fc fusion) VHH: EVQLVESGGGLVQPGGSLRLSCAASGFTLDYYDMGWFRQAPGKEREFVALISWSGGSTYYADSVKGRFTISADNSKNTAYLQMNSLKPEDTAVYYCATDFYGWGTRERDAFDIWGQGTLVTVSS	27.2
variant 6-44 (Fc fusion) VHH: EVQLVESGGGLVQPGGSLRLSCAASGGTFGVYHMGWFRQAPGKEREFIGRITWTDGSTYYADSVKGRFTISADNSKNTAYLQMNSLKPEDTAVYYCFGLLEVYDMTFDYWGQGTLVTVSS	8.2
variant 6-38 (Fc fusion) VHH: EVQLVESGGGLVQPGGSLRLSCAASGNTFSGGFMGWFRQAPGKEREFVAVISSLSSKSYADSVKGRFTISADNSKNTAYLQMNSLKPEDTAVYYCAKVDSGYDYWGQGTLVTVSS	26.6
variant 6-41 (Fc fusion) VHH: EVQLVESGGGLVQPGGSLRLSCAASGFTFSTSWMGWFRQAPGKEREFVASINEYGGRNYADSVKGRFTISADNSKNTAYLQMNSLKPEDTAVYYCAGLHYYYDSSGYNPTEYYGMDVWGQGTLVTVSS	51.5
variant 6-22 (Fc fusion) VHH: EVQLVESGGGLVQPGGSLRLSCAASGRTFSEVVMGWFRQAPGKEREFVATIHSSGSTSYADSVKGRFTISADNSKNTAYLQMNSLKPEDTAVYYCVRVTSDYSMDSWGQGTLVTVSS	25.6
variant 6-35 (Fc fusion) VHH: EVQLVESGGGLVQPGGSLRLSCAASGFTLAYYAMGWFRQAPGKEREFVAAISMSGDDTIYADSVKGRFTISADNSKNTAYLQMNSLKPEDTAVYYCARELGYSSTVWPWGQGTLVTVSS	251
variant 6-13 (Fc fusion) VHH: EVQLVESGGGLVQPGGSLRLSCAASGLTFNDYAMGWFRQAPGKEREFVAHIPRSTYSPYYADSVKGRFTISADNSKNTAYLQMNSLKPEDTAVYYCAFLVGPQGVDHGAFDVWGQGTLVTVSS	25.3
variant 6-9 (Fc fusion) VHH: EVQLVESGGGLVQPGGSLRLSCAASGFTFDYYAMGWFRQAPGKEREFVSAIDSEGRTSYADSVKGRFTISADNSKNTAYLQMNSLKPEDTAVYYCARWGPFDIWGQGTLVTVSS	18.5
variant 6-16 (Fc fusion) VHH: EVQLVESGGGLVQPGGSLRLSCAASGFTFDDAAMGWFRQAPGKEREFVAHISWSGGSTYYADSVKGRFTISADNSKNTAYLQMNSLKPEDTAVYYCATFGATVTATNDAFDIWGQGTLVTVSS	52.1
variant 6-10 (Fc fusion) VHH: EVQLVESGGGLVQPGGSLRLSCAASGSIASIHAMGWFRQAPGKEREFVAAISRSGGFGSYADSVKGRFTISADNSKNTAYLQMNSLKPEDTAVYYCARDDKYYDSSGYPAYFQHWGQGTLVTVSS	29.7

Source: patent publication US20210355194A1 (TWIST BIOSCIENCE, published 2021)
